Laboratory results from patent US20090203886A1 (OSAKA UNIVERSITY, published 2009).
Substitutions are numbered along the chain they refer to.

B1: 1K1712 murine anti CD20 monoclonal antibody (antibody, V domains shown)
VH: QVQLQQPGAELVKPGASVKMSCKASGFTFTSYNLHWVKQTPGQGLEWIGAIYPGSGDTSYNQQFKGKATLTADKSSNTAYMQLNSLTSEDSAVYCCARSAMISTGNWYFDYWGQGTTLTVSS
VL: QIVLSQSPAILSASPGEKVTMTCRASSSVSYMDWYQQKPGSSPKPWIYATSNLASGVPARFSGSGSGTSYSLTISRVEAEDTATYYCQQWTFNPPTFGSGTKLEIK
notes: also called m1712
B2: 1K1736 murine anti CD20 monoclonal antibody (antibody, V domains shown)
VH: QVQLQQPGAELVKPGASVKMSCKASGYTFTTYNLHWVKQTPGQGLEWIGGIYPGNGDTSYNQKFKVKATLTADKSSNTAYMQLSSLTSEDSAVYYCARWIYYGNYEGTLDYWGQGTSVTVSS
VL: B1 VL with A13S, D33L, K44E, S64G, T82A, S99G
B3: 1K1402 murine anti CD20 monoclonal antibody (antibody, V domains shown)
VH: QVQLQQPGAELVKPGASVKMSCKASGFTFTSYNMHWVKQTPGQGLEWIGGIYPGNGDTSYNQKFKGKATLTADKSSSTAYMQLSSLTSEDSAVYYCARFYYYGSMGAMDYWGQGTSVTVSS
VL: B1 VL with D33H, S75T, T82A, S99A, I105L
notes: also called m1402
B4: 1K1782 murine anti CD20 monoclonal antibody (antibody, V domains shown)
VH: QVQLQQSGAELAKPGASVKMSCKASGYTFTSYWMHWVKQRPGQGLEWIGYITPSTGYTDYNKKFKDKATLTADRSSSTAYMHLSSLTSEDSAVYYCARSGPYFDVWGAGTTVTVSS
VL: DILLTQSPAILFVSPGERVSLSCRASQNIGTSIHWYQQRTNGSPRLLIKYASESFSGIPSRFSGSGSGTDFTLSINSVESEDIADYYCQQSNSWPFTFGSGTKLEIK
notes: also called m1782
B5: 1K1791 murine anti CD20 monoclonal antibody (antibody, V domains shown)
VH: QIQLVQSGPELKKPGETVKISCKASGYTFTNFGVNWVKQAPGKGLKWMGWINTYTGEPSYADDFKGRFAFSLEASANTAYLQINNLKNDDMSTYFCTRRTNYYGTSYYYAMDYWGQGTSVTVSS
VL: STVMTQTPKFLLVSAGDRVTITCKASQSVSNDVAWYQQKPGQSPKVLIYFASNRYTGVPDRFTGSGYGTDFTFTINTVQAEDLAVYFCQQDYSSPLTFGAGTKLELK
notes: also called m1791

Experiments:
human CD20 antigen [1] = target: T1, human CD20 antigen (human, UniProt P11836 1-297); assay: cell-based or functional assay
T1 sequence (looked up): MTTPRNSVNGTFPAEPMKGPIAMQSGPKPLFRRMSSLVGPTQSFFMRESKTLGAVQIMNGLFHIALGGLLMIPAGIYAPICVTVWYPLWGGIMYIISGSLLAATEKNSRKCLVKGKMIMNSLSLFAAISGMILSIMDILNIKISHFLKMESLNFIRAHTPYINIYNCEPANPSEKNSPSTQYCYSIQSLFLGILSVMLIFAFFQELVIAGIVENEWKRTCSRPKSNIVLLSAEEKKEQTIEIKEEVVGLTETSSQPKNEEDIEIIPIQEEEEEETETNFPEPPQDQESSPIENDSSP

human CD20 antigen [2] = target: T1, human CD20 antigen; assay: Scatchard analysis on Raji cells, FITC secondary antibody fluorescence (Example 2)
Protocol: The mixture was shaken for one hour at room temperature while shielding against light and primary antibodies binding to cells were detected. After the reaction, the mixture was centrifuged at 3,000 rpm for three minutes and the cells were recovered. The cells were suspended in 200 μl of PBS to remove unreacted FITC-labeled anti murine IgG (H&L) antibody remaining on the cell surface and then centrifuged at 3,000 rpm for three minutes to remove the supernatant. This operation was repeated twice.
After the detection step, the image was digitized using image analysis software Image Quant (Amersham Bioscience) and analyzed using Excel (Microsoft). Background values for the plate, the PBS solution and FITC-labeled secondary antibody displaying non-specific binding to cells were determined. Then a value for the reaction only between the cells and the FITC-labeled secondary antibodies was obtained. Average values for those four points were subtracted from the fluorescent intensity value for each sample in order to obtain the amount of fluorescence of cell-conjugated FITC-labeled secondary antibody. A standard curve was prepared by measuring the amount of fluorescence at various concentrations of control cell-conjugated FITC-labeled secondary antibodies. Thus the amount of cell-conjugated secondary antibody (number of moles or weight) was calculated. The amount of cell-conjugated primary antibody was calculated assuming that each primary antibody and the FITC-labeled secondary antibody react at a ratio of 1:2. Primary antibody in suspension was calculated by subtracting the cell-conjugated amount from the added amount. When calculating the antibody concentration as a molar concentration, the molecular weight of the monoclonal was taken to be 150,000.
Scatchard analysis was used to calculate the antigen number and dissociation constant (Kd value) refer to Scatchard, G.; Ann. N.Y. Acad.

human CD20 antigen [3] = target: T1, human CD20 antigen; assay: cell-based or functional assay; remark: listed apart in the source
human CD20 antigen [4] = target: T1, human CD20 antigen; assay: cell-based or functional assay; remark: listed apart in the source

Molecule	Cell growth inhibiting test on Raji cells, Absorption (492 nm) (absorbance 492 nm) (human CD20 antigen [1])	Kd (human CD20 antigen [2]) [pM]	Capacity to Induce Apoptosis (Raji cells) (human CD20 antigen [3])	Cell growth inhibiting test on Raji cells, Absorption (492 nm) (human CD20 antigen [4]) [absorbance 492 nm]
2B8 murine anti CD20 antibody (positive control)	1.76	6790		
B1		840	50	2.33
B2		540	50	2.24
B3		780	30	2.54
B4		400	30	2.6
B5		1700	160	1.79
